Assay results as given in the FLAb antibody collection (doi:10.1101/2023.12.08.570889).
Changes are numbered by the printed parent chain. Values belong to the binder of their own block, whether it stands above or below them.

What was measured:
[1] = molecular target: IL36R; assay: Kd (SPR)
[2] = molecular target: FXI; assay: Kd (SPR)

- Kd [1]: 0.964 nM
B1: unnamed (protein)
chain 1: QVQLVQSGAEVKKPGASVKVSCKASGYSFTSSWIHWVKQAPGQGLEWMGEINPGNVRTNYNENFRNKVTMTVDTSISTAYMELSRLRSDDTAVYYCTVVFYGEPYFPYWGQGTLVTVSS
chain 2: QIVLTQSPGTLSLSPGERATMTCTASSSVSSSYFHWYQQKPGQAPRLWIYRTSRLASGVPDRFSGSGSGTDFTLTISRLEPEDAATYYCHQFHRSPLTFGAGTKLEIK

- Kd [1]: 1.04 nM
B2: unnamed (protein)
chain 1: B1 chain 1 with V98R, F100R, E103Y, Y105W, P107D
chain 2: B1 chain 2

- Kd [1]: 12.3 nM
B3: unnamed (protein)
chain 1: B1 chain 1 with V98R, V99I, F100R, P107D
chain 2: B1 chain 2

- Kd [1]: 3.16 nM
B4: unnamed (protein)
chain 1: B1 chain 1 with V98R, F100M, P107D
chain 2: B1 chain 2

- Kd [1]: 0.759 nM
B5: unnamed (protein)
chain 1: B1 chain 1 with V98R, F100S, P107D
chain 2: B1 chain 2

- Kd [1]: 0.617 nM
B6: unnamed (protein)
chain 1: B1 chain 1 with V98R, F100Q, P107D
chain 2: B1 chain 2

- Kd [1]: 0.689 nM
B7: unnamed (protein)
chain 1: B1 chain 1 with V98R, F100R, Y101F, E103Y, Y105W, P107D
chain 2: B1 chain 2

- Kd [1]: 24.5 nM
B8: unnamed (protein)
chain 1: B1 chain 1 with V98R, V99S, F100R, Y105W, P107D
chain 2: B1 chain 2

- Kd [1]: 1.87 nM
B9: unnamed (protein)
chain 1: B1 chain 1 with V98R, F100Q, E103Y, P107D
chain 2: B1 chain 2

- Kd [1]: 3.28 nM
B10: unnamed (protein)
chain 1: B1 chain 1 with V98R, F100R, Y101F, P107D
chain 2: B1 chain 2

- Kd [1]: 0.888 nM
B11: unnamed (protein)
chain 1: B1 chain 1 with V98R, F100R, Y105W, P107D
chain 2: B1 chain 2

- Kd [1]: 1.4 nM
B12: unnamed (protein)
chain 1: B1 chain 1 with V98R, F100S, Y105W, P107D
chain 2: B1 chain 2

- Kd [2]: 284 nM
B13: unnamed (protein)
chain 1: EVQLLESGGGLVQPGGSLRLSCAASGFTFSQYGMDWVRQAPGKGLEWVSGIGPSGGSTVYADSVKGRFTISRDNSKNTLYLQMNSLRAEDTAVYYCTRGGPWYYYAFDVWGQGTTVTVSS
chain 2: DIQMTQSPSSLSASVGDRVTITCQASQDISNYLNWYQQKPGKAPKLLIYDASNLETGVPSRFSGSGSGTDFTFTISSLQPEDIATYYCQQADSFPVTFGGGTKVEIK

- Kd [2]: 204 nM
B14: unnamed (protein)
chain 1: B13 chain 1 with T97A, W102A, Y103W
chain 2: B13 chain 2

- Kd [2]: 1410 nM
B15: unnamed (protein)
chain 1: B13 chain 1 with P101T, W102A
chain 2: B13 chain 2

- Kd [2]: 241 nM
B16: unnamed (protein)
chain 1: B13 chain 1 with W102A, Y103W
chain 2: B13 chain 2

- Kd [2]: 573 nM
B17: unnamed (protein)
chain 1: B13 chain 1 with G99D, W102D, V109Y
chain 2: B13 chain 2

- Kd [2]: 625 nM
B18: unnamed (protein)
chain 1: B13 chain 1 with G99D, P101D, W102A
chain 2: B13 chain 2

- Kd [2]: 822 nM
B19: unnamed (protein)
chain 1: B13 chain 1 with T97A, P101S, W102A
chain 2: B13 chain 2
